Legend:
[1] = biological target: Hebeloma cylindrosporum Jps1 (HcJps1) (Hebeloma cylindrosporum); test: SEC-MALS
[2] = biological target: Sporisorium reilianum Jps1 (SrJps1) (Sporisorium reilianum); test: mass photometry
[3] = biological target: Sporisorium reilianum Jps1 (SrJps1) (Sporisorium reilianum); test: SEC-MALS
[4] = biological target: Ustilago maydis Jps1 lacking the unstructured C-terminus (Jps1^1-484) (Ustilago maydis); test: SAXS
[5] = biological target: Ustilago maydis Jps1 lacking the unstructured C-terminus (Jps1^1-484) (Ustilago maydis); test: SEC-MALS
[6] = biological target: Ustilago maydis Jps1, full length (Jps1^1-609) (Ustilago maydis); test: mass photometry
[7] = biological target: Ustilago maydis Jps1, full length (Jps1^1-609) (Ustilago maydis); test: SEC-MALS
[8] = biological target: Ustilago maydis Jps1^1-484 M^5 (alanine replacements of the basic cluster R162, R163, R164) (Ustilago maydis); test: SEC-MALS

In the case of “Hebeloma cylindrosporum Jps1 (HcJps1) (natural protein)”, the stoichiometry N [1] is reported as 2.
“Sporisorium reilianum Jps1 (SrJps1) (natural protein)” gave a stoichiometry N [2] of 2 and a stoichiometry N [3] of 2.
“Ustilago maydis Jps1 lacking the unstructured C-terminus (Jps1^1-484) (domain or fragment)” showed a stoichiometry N [4] of 2 and a stoichiometry N [5] of 2.
For “Ustilago maydis Jps1, full length (Jps1^1-609) (natural protein)”, the percent of particles in the dimer fraction (125 kDa) [6] was 69%, the percent of particles in the monomer fraction (64 kDa) [6] was 9% and the stoichiometry N [6] was 2. The stoichiometry N [7] was 2.
For “Ustilago maydis Jps1^1-484 M^5 (alanine replacements of the basic cluster R162, R163, R164) (domain or fragment)”, the stoichiometry N [8] was 2.

Source: article doi:10.1101/2024.02.29.582524
